The test addresses human CD84 on cells (primary CLL cells, Ramos cells, Daudi cells) (human), Q9UIB8. Briefly: cell-based or functional assay.

The values that follow come from patent US20180327493A1.

human CD84 on cells (primary CLL cells, Ramos cells, Daudi cells) (human), Q9UIB8, sequence (Q9UIB8 22-345): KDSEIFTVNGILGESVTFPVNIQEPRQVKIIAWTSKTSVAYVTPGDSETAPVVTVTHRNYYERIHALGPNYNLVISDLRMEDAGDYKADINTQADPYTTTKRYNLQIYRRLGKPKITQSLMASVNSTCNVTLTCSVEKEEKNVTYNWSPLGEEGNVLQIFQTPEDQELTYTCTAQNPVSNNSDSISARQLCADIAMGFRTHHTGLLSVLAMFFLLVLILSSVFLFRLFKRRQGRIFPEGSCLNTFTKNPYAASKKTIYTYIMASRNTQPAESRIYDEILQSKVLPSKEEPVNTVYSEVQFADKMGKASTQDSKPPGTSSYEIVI

B1: anti-CD84 antibody from the B4 hybridoma (antibody)
heavy: EVKLVESGAELARPGASVKLSCKASGYTFTSYWMQWVKQRPGQGLEWIGAIYPGDGDTRYTQKFKGKATLTADKSSSTAYMQLSSLASEDSAVYYCARLLRTYWYFDVWGAGTTVTVSSFEAKTTAPSVYPLAPVCGDTTGSSVTLGCLVKGYFPEPVTLTWNSGSLSSGVHTFPAVLQSDLYTLSSSVTVTSSTWPSQSITCNVAHPASSTKVDKKIEPRGPTIKPCPPCKCPAPNLLGGPSVFIFPPKIKDVLMISLSPIVTCVVVDVSEDDPDVQISWFVNNVEVHTAQTQTHREDYNSTLRVVSALPIQHQDWMSGKEFKCKVNNKDLPAPIERTISKPKGSVRAPQVYVLPPPEEEMTKKQVTLTCMVTDFMPEDIYVEWTNNGKTELNYKNTEPVLDSDGSYFMYSKLRVEKKNWVERNSYSCSVVHEGLHNHHTTKSFSRTPGK
light: DIVLTQSHKFMSTSVGDRVSITCKASQDVGTAVAWYQQKPGQSPKLLIYWASTRHTGVPDRFTGSGSGTDFTLTISNVQSEDLADYFCQQYSSYPYTFGGGTKLELKRRTRADAAPTVSIFPPSSEQLTSGGASVVCFLNNFYPKDINVKWKIDGSERQNGVLNSWTDQDSKDSTYSMSSTLTLTKDEYERHNSYTCEATHKTSTSPIVKSFNRNEC
B1 yielded a % apoptosis, Ramos cells (Magic Red, FACS) of 39 % apoptosis; a % apoptosis, purified CLL cells (Magic Red, FACS) of 75 % apoptosis; an annexin positive total population of CLL cells (Annexin 7AAD staining) of 55.8%.

B2: anti-CD84 antibody from the B1 hybridoma (antibody)
heavy: EVKLVESGGGLVQPGGSRKLSCAASGFTFSSFGMHWVRQAPEKGLEWVAYISSGSSTIYYADTVKGRFTISRDNPKNTLFLQMTSLRSEDTAMYYCARWGWTGTGLDYWGQGTTLTVSSFEAKTTPPSVYPLAPGSAAQTNSMVTLGCLVKGYFPEPVTVTWNSGSLSSGVHTFPAVLQSDLYTLSSSVTVPSSTWPSETVTCNVAHPASSTKVDKKIVPRDCGCKPCICTVPEVSSVFIFPPKPKDVLTITLTPKVTCVVVDISKDDPEVQFSWFVDDVEVHTAQTQPREEQFNSTFRSVSELPIMHQDWLNGKEFKCRVNSAAFPAPIEKTISKTKGRPKAPQVYTIPPPKEQMAKDKVSLTCMITDFFPEDITVEWQWNGQPAENYKNTQPIMDTDGSYFVYSKLNVQKSNWEAGNTFTCSVLHEGLHNHHTEKSLSHSPGK
light: DIVLTQSPALMAASPGEKVTITCSVSSSISSSNLHWYQQKSETSPKPWIYGTSNLASGVPVRFSGSGSGTSYSLTISSMEAEDAATYYCQQWSSYPFTFGSGTKLEIKRRTRADAAPTVSIFPPSSEQLTSGGASVVCFLNNFYPKDINVKWKIDGSERQNGVLNSWTDQDSKDSTYSMSSTLTLTKDEYERHNSYTCEATHKTSTSPIVKSFNRNEC
B2 registered a % apoptosis, Ramos cells (Magic Red, FACS) of 45 % apoptosis and a % apoptosis, purified CLL cells (Magic Red, FACS) of 73 % apoptosis.
